What follows are sequences tested on Escherichia coli TOP10 (assay: shrunken log2 fold change of peptide-encoding DNA abundance (4.5 h post-induction vs induction); higher = less antimicrobial activity (less host growth inhibition)). Conditions: time post-induction: 4.5 h; library: site-saturation at positions 5, 18, 19, 20.
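Note: peptides expressed intracellularly from a pBAD plasmid library in pooled LB shake-flask culture, induced with 0.3% L-arabinose, DNA abundance read by NGS, three biological replicates, DESeq2 with apeglm shrinkage.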

Sequence | shrunken log2 fold change
RRIRDRPPRLPRPRPRPDGTPRP | 0.184
RRIRSRPPRLPRPRPRPPTMPRP | -0.00342
RRIRMRPPRLPRPRPRPPNYPRP | 0.0891
RRIRLRPPRLPRPRPRPQADPRP | 0.112
RRIRVRPPRLPRPRPRPCMDPRP | -0.836
RRIRARPPRLPRPRPRPCWHPRP | 0.134
RRIRTRPPRLPRPRPRPHVLPRP | -0.193
RRIRERPPRLPRPRPRPNDIPRP | 0.0203
RRIRQRPPRLPRPRPRPAIHPRP | 0.135
RRIRYRPPRLPRPRPRPVELPRP | -0.151
RRIRSRPPRLPRPRPRPWNCPRP | -0.223
RRIRARPPRLPRPRPRPFMRPRP | 0.59
RRIRHRPPRLPRPRPRPCSQPRP | -0.00141
RRIRDRPPRLPRPRPRPFEMPRP | 0.182
RRIRDRPPRLPRPRPRPCCSPRP | 0.166
RRIRMRPPRLPRPRPRPAPTPRP | 1.13
RRIRARPPRLPRPRPRPWQFPRP | 0.456
RRIRMRPPRLPRPRPRPHWIPRP | -0.0869
RRIRDRPPRLPRPRPRPDKCPRP | 0.089
RRIRLRPPRLPRPRPRPVVWPRP | 0.547
RRIRCRPPRLPRPRPRPHCIPRP | -0.468
RRIRRRPPRLPRPRPRPNLMPRP | 0.85
RRIRQRPPRLPRPRPRPYFLPRP | -0.923
RRIRTRPPRLPRPRPRPIFCPRP | -0.327
RRIRIRPPRLPRPRPRPRRCPRP | 0.221

Sequence | shrunken log2 fold change
RRIRARPPRLPRPRPRPWCYPRP | -0.306
RRIRNRPPRLPRPRPRPLHLPRP | -0.59
RRIRFRPPRLPRPRPRPRQYPRP | -0.465
RRIRERPPRLPRPRPRPIYGPRP | 0.0231
RRIRWRPPRLPRPRPRPCCAPRP | 0.47
RRIRCRPPRLPRPRPRPWFGPRP | -0.374
RRIRHRPPRLPRPRPRPLGRPRP | 0.218
RRIRWRPPRLPRPRPRPAAEPRP | 1.21
RRIRYRPPRLPRPRPRPIAFPRP | -0.564
RRIRRRPPRLPRPRPRPVPWPRP | 0.573
RRIRYRPPRLPRPRPRPTIVPRP | -0.0265
RRIRPRPPRLPRPRPRPWVVPRP | 0.0434
RRIRRRPPRLPRPRPRPVVAPRP | 0.43
RRIRARPPRLPRPRPRPHGHPRP | 0.125
RRIRSRPPRLPRPRPRPGRDPRP | 0.255
RRIRVRPPRLPRPRPRPLPEPRP | 0.423
RRIRQRPPRLPRPRPRPKKQPRP | -0.286
RRIRKRPPRLPRPRPRPPNRPRP | 0.151
RRIRQRPPRLPRPRPRPAWQPRP | 0.147
RRIRSRPPRLPRPRPRPACKPRP | -0.146
RRIRERPPRLPRPRPRPAWYPRP | -0.179
RRIRGRPPRLPRPRPRPEPMPRP | 0.648
RRIRNRPPRLPRPRPRPNERPRP | 0.0308
RRIRMRPPRLPRPRPRPSAPPRP | 0.51
RRIRDRPPRLPRPRPRPYSWPRP | 0.016

Sequence | shrunken log2 fold change
RRIRQRPPRLPRPRPRPPRGPRP | 2.1
RRIRNRPPRLPRPRPRPFSHPRP | -0.015
RRIRHRPPRLPRPRPRPFVIPRP | -0.331
RRIRKRPPRLPRPRPRPEQWPRP | -0.0362
RRIRWRPPRLPRPRPRPPSEPRP | 0.456
RRIRWRPPRLPRPRPRPPGHPRP | 0.403
RRIRERPPRLPRPRPRPFGFPRP | -0.335
RRIRTRPPRLPRPRPRPEMYPRP | -0.012
RRIRNRPPRLPRPRPRPTMFPRP | -0.247
RRIRWRPPRLPRPRPRPCWDPRP | 0.0945
RRIRVRPPRLPRPRPRPSVVPRP | 0.00363
RRIRSRPPRLPRPRPRPHMFPRP | -0.428
RRIRRRPPRLPRPRPRPPDNPRP | 0.548
RRIRFRPPRLPRPRPRPQADPRP | 0.0728
RRIRYRPPRLPRPRPRPLFPPRP | -0.643
RRIRERPPRLPRPRPRPKMWPRP | -0.0633
RRIRIRPPRLPRPRPRPTPIPRP | 0.153
RRIRLRPPRLPRPRPRPMCYPRP | -0.294
RRIRHRPPRLPRPRPRPRDVPRP | -0.191
RRIRLRPPRLPRPRPRPATIPRP | -0.0972
RRIRMRPPRLPRPRPRPEVRPRP | 0.438
RRIRCRPPRLPRPRPRPKVDPRP | 0.0328
RRIRMRPPRLPRPRPRPYHPPRP | -0.423
RRIRRRPPRLPRPRPRPVFIPRP | -0.0708
RRIRDRPPRLPRPRPRPCKVPRP | -0.202

Reference: the supplement of paper PMC9112550, “Optimization of the antimicrobial peptide Bac7 by deep mutational scanning” (BMC Biology, 2022)
